Assay results from the domain aggregation screens of Martell et al. (2025).

assay: soluble fraction after stress (log2 fold change); higher = more stays soluble; pooled small domains, quantitative proteomics; settings: stress: 50 degC
Procedure, shortened: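 Pooled custom libraries of small protein domains were each held under stress at 50°C. The read-out, high-throughput quantitative proteomics, tracked how much of each protein stayed soluble. This is reported as a base-two log fold change used to indicate aggregation propensity. Higher values mean more protein remains in solution.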

In order of rising “soluble fraction (log2)” value:
1. HMSDKFNALWIILNKLDKKEKVTARSLMEDLEVSERSVYRYITTLQVAGFPVDYDRAVNSYVFSDGYTLK  -4.08
2. HMNMANFARIRLILELHDRGMSQDEISRSRHMSRSTITTVLRTARKKGITYAGIRKLDDAALQKLFFPDR  -3.88
3. HMVVGYRYVTNVANAVNFRQKPSASSTIITTIPYGTRIGYVEDANSEYARVKYDNMYGYVAKFYLSNYSPP  -3.27
4. HMFQNYTDAVVVASKTFFYNMPDESTRKSAYLIQGDRIMVEKSQRNFVYVTFTNEASGRTTTGWLKSDDLE  -2.9
5. HMSSFSESFHKALNNLDDKHKSVFSLRHFEGFSMKEIAETLNINEGTVKSRLFYATKTLAGALKEF  -2.74
6. HMHMHTADDFKQLAKHTSNGRLRTRYLALYHFKKGETRTQIAAYLGVARGSVNTWVSNYLAYGLEGLQS  -2.56
7. HMIKYTIEELGELTGFTRRTIRYYVQEGLIDPPAGRGRGGFYYDSHVQQLLRIKSFQEKGIGITAMVSLM  -2.51
8. HMQTTITITNTVTGQKAQFPPPFNPMSLSKIGVDETFEKEVFVDGVDTFGYGLDGYLTFYELKDFLRSYQ  -2.5
9. HMNDIQIILQEAVARLPKKQQLVFNMKYFDHLKYQEISEILGTSVGGLKASYFQAVKKIENYIINKH  -2.38
10. HMIINKFERRKEIQIQFNNQERIKFKDFFLNLSKENIIVSFLILLELVRESLIDFSGTNENDIEFFIK  -2.3
11. HMNSVSIAPEMLNWVIAHIQMNSLPKQIVEHLTAWISGQKEPTFNQIEKVSRATGIPLGYFFLEQPPKE  -2.03
12. HMEQIETIFLSAAPYARTHIIHLLETSELFRDKYLTIVETSNGLLIYTEDKNRLLGILNSLT  -1.9
13. HMPTMTDIPIKIIRSRRRTLAIEVREGGEVIVRAPLYSRKAEIDAFVKAHENWIITKYNLMITKQN  -1.74
14. HMTQEAMRSLRKSLQNLSSRQQVIFMLRHYEGLALKEIAEHLGLETGTVKAHLHRAVTQLRKDLVE  -1.68
15. HMLDLNEVEFYAIENQLKENLKIDSKRFYELVPLIKGYQEDDIIQVLRWLIDNNRIIRHKDESLTWHS  -1.61
16. HMVNGEFIDRIKVILQENNATRKKDRLTKTRMYQLLQEEGYEGSYSAFTYQVRIIEEELGINNK  -1.51
17. HMRMYDVNEYSDEELHRILDLSSPTDSELEARILQMIQKYKYTNGGDNEKMAVFFENIYHHFFD  -1.5
18. HMGTRIQAVMEDIQSRIAARTYLPGTRLPSVRAQAQAMQVSVSTVVEAYERLAAEGVIASRPGSGFYVAGP  -1.44
19. HMGPPAVGAKLQVLRQARKLSLDELSRRAGVSKSMLSQVERNLANPTVAVLWRLATALGVGLADFLSP  -1.39
20. HMLTALTDREEEILVLLAHNLSNKEIAKRLNLSVNTVRNHTSHIYEKLNVTSRRKAITLAQSLHLLPP  -1.35
21. HMNTLTKEDIQKAIDVIPIDFKSVVILNLVEGFSYKETAEILEIPIGTVMSRLHRGRKILQKLLWEYSSSK  -1.32
22. HMGVHSVVPDIKNKHYGEAKAILAANGLSIEISDSIYDRSVAPGTVVESWPKAGAIVKGDRAVFVTLTAF  -1.28
23. HMSGRPPTYTAEERSAVIAAALSRPADLGLPFASWTLDRLVAYLGEKGIGMKRSRMSEVLLAEGLKW  -1.25
24. HMETFGLSQRELQILSQLHKGQPLKEFAASLFITESTLKTHLSAIYRKMSVKNRVQAIEKAKQSGL  -1.24
25. HMWMTAQDFRNSSLPWSATTSYNEGQSVRVVDGSNTYYYIAIVKTQPGQSPTTHPTSWREVDA  -0.99
26. HMDPIATLTPREREVLSLMAEGRSNGAIAAALVVGDGAVEKHVSNIFQKLELTPAEGDHRRVLAVLRWLE  -0.901
27. HMGVGITAPLAGNIFKIVVQPGDVVASGDVVLVLEAMKMETEIRAASGGTVSQVLVREGDAVDAGHTLITL  -0.764
28. HMNAIYKFVLGMIGKRSGVVTTLPSKKQVEFQANMLAEKFMQNGIDPNALKSPEQVKNVLANIDQ  -0.737
29. HMEQEVLDLLFDAIRSLPEKYRRLFDMSFEQGLKNAEIAALLHVSESAVKKQKASMIQQLRDDLLRKTGKD  -0.693
30. HMEKKPYGEMHNVMLTDEELEKLRHDYPAHFAEYIQRLSLHIDAKGARYKSHYAVIRKWLIADGVKA  -0.679
31. HMESIPDELLEAFKQDPAFKQAFYALTAGRQRGYIIHFSQPKQSQTRIGRIEKYKEQIFNGIGLN  -0.643
32. HMINVVDEVIKHLETNIISGFWAPGQKIDSEATLSKQLNVSRASIHTAIQQLIATGVLESFQGKGTFVRS  -0.624
33. HMNTKLKPLYLLDIFREMTDERHRMTVPELLEELQRRGITAERKGIYRDIDALIQYGADIKHTGTGYYLAR  -0.561
34. HMTKSTLQRQKIIADLIESGNISSQNQLKGLLKKNSLLITQATLSRDLSELGAIKKRQKDGLLVYVLPK  -0.511
35. HMLPSMENWLGELSFWQTPWWERRDFSTFDNIAQSKEELDEFMSRDDNGAILERMQDPINTIEAE  -0.46
36. HMKPSISKIYALWGVLQRSGKIKSQDKAALDAFVRKYTGVDHVKWLDESQARKIIEILKQMIA  -0.458
37. HMIAASPVGGIDRVLELLDARGQRVAWIEASGTEGGQRLRLGWIDAQGAERHGAWVPWSADDLLLYA  -0.387
38. HMETPEIPGLTPRQVEIMLLVGKGYSNKEIARFLTISPETVKTHLKEVFLRFGLRNRVEAIDFTRQNGL  -0.363
39. HMSSNLTVFTRNNAIIVNSDVVRKLNVFAVDGRLVRSVDLSVGENVINNISRGMYLIDKQKVVV  -0.353
40. HMVTKTTYAYERLKREIMDGTLGQGEKLVVNAISQRYQVSPMPIREALLKLEQEGLVQSAPHRGAWVHK  -0.345
41. HMSDPELNDNEKKIYDIIFNKKSMDLTELKNLSELSNKQWDKGIKSLSKQDFVKVIKTEEALIVELV  -0.302
42. HMKTSTGSAMYLTLDLAEKYAGQAFTLVHKKADGTFEYLYATADVDGKVKFGPVYELSPFMLVKGQL  -0.291
43. HMRMLTKRRQDLLLELLEERGSITVSEVKDMLDASESTIRRDITALDEEGKLVKVFGGAVAAR  -0.272
44. HMSFDNIKVGYISETAGYVKGISLADANEYAKLNPDTEFIFIDGDEKVRFLTINEVNGLTPKNLLRSDP  -0.23
45. HMLYGRRFQVEGLNLERYLRAAADSGIPLKGARRFGRTLTGVAAEEHMAALEALARQGGWLFTPLEAVGAN  -0.22
46. HMIQTKKVTFTVEPTVNFEKINISGIEFKINSGSSITAIYEKNSHNFDEVLDFLKQKGVKILDIVTED  -0.118
47. HMIQHFARKRRQLELAVQRLSGRMAETNGQVTADMQRLIQQVKALVAELSHVFSRAYLRRVLGGVALVIGS  -0.104
48. HMKPSKTDEAEYWLMERLEEGPQPAGDLIRIGEEFGYTPKILRDAGERFNMERYKDGLDHWMWKLPN  -0.0945
49. HMPGSGELSRRLELAIRDRTAVRVTAAAAGQERSFTLLPVAITSGRLRATDEQAGVQRTLPLSAIVAVEA  -0.0911
50. HMNEQVAVVSGSQVNVRSGPGTTSAVVGQVSKGDNLPVLNQSGDWYQIKLPGGNAGWVAGWLVSLRPTT  -0.0873
51. HMRMTRQRKVILEELGKVYTHPTADEIYTMVKEKLPNISLGTVYRNLDLLAENNQVLKLETAGNIRRYD  -0.0847
52. HMNLFKAPMPGLIRTIVVAEGQEVKKGDVILILEAMKMENALKSPADLVVKSIKVQQGQAVEKNQLLIEF  -0.0526
53. HMIKRETNDNPVDPASLSLGDRVKILTLNQNGEIISLPDEKGLLQVQVGIMKIGVNVSDIMLI  -0.0513
54. HMGKHYLLKDDNGTITIYKILEDGTQEVYEKTEISTTYLPQTDNIGIKQGIRVNGDEALNELIENF  -0.0212
55. HMSWAAQVVDKMTNDQLIKSLNEIVNTGKQLGLDITVEQNGDKNFIMTVKDSKGNVQLVTPIG  -0.0133
56. HMGSFDDAPDQLRQSILQLLAEGPLPPSAITERLNISREDATEALQQLLDEQRIFAVNGMLQLQPG  -0.0107
57. HMDTNEPFAQLQLRFTDPIQYDYEVIRPVVLFSQSVTDRSDETEMPRTTVREKARQFVTEGMLGLVDK  -0.00748
58. HMDAISYTQFMEEAKQGRINKVEVQGRTLMVTPTDGKAYSLTSPGDLWMTTDLMKYGVNVYGAE  -0.00324
59. HMIEQIELEARVPDELGGQRLDQVAAQMFDDFSRSRLTGWIRDGSLTADGQQLRPRDIVYGGTLLQLKAEQ  0.00374
60. HMDGPGDRLLIAIQENSMTQKKFAQLIGMSPNGLNSIIKGKKRLSRVLAIATERLTGVRADWILQNEQPK  0.0136
61. HMDAEELNSKAKDEFTWLEDDESETNLEYRKMVSSEDMAIVAKVAPALAAKLKYQLAHAATNMV  0.0207
62. HMNGVSNETLIQKSALYEELNQPDLALKMINTALKKDSVNIEILHRLVTLLMSQEKNEEAILYNQKIIDH  0.022
63. HMDAGIVVPDTYNKPLAEAVASLEGEGFRTEKKEGYSDTVAKGNVMSQNPEAGTNAERGSTVTIVISQGPQ  0.0495
64. HMTKLSPKEKSILHIIGDNAGIKSGQIAKRLDIPSPTVKRILSDLVSQNLIEKFGTGPGTNYSI  0.0531
65. HMNNIIEQIKADIKKLEEKLDKSSENALNKLEKDYSSLSTESKKKLDDAGYGARIKALRVKFAALSTQ  0.0666
66. HMGGEPVSARVPDTLHGARLDATAAALFPDFSRSRLAEWIKAGRLRRNDQPAKPRDKVAVDDHLLLIPEY  0.0696
67. HMAREQISVSQMVRDVRDGQVKNIEVLGQELRLSYADGSQKVTRKEEGQQALEILFASDIDLAALDLEVQ  0.0848
68. HMRSVPNVAGLGMDGAAFQLGKAGFAIGTITPADDPKAVVGSIQRTEPAAGTVADRDTVVNLFQV  0.0939
69. HMGESEKTLELVSQKDALVDEAFFFVRFQALLESNKTKGAQDLLDQSNHLSAAKLLQANAYLDIV  0.119
70. HMSRGAIVTGTVIEKNQSGIYVDLGYKSDGIVPIEEFDGEESKYNVGDQIRVYVKKVDDGHGQLML  0.126
71. HMGEDSEPVQVPDVTGQPLWEARRTLSSMGLKVLDDGGSGSVTAQMPSAGATLRNGGQMMLYTYDEALPE  0.133
72. HMLSNKIEQLRKEKGYTFAKLSELSGISTGRLSDLATGKRNNPTMDTLIKLADALDVTLDELVGR  0.14
73. HMFTDAEIKQFAAAAVEVTKIQQDSTISAADKQPKMLAVVQSSGLPPEKFNQIGQAAAADPALQQRIQA  0.156
74. HMQENKVLEGKVLEKKKKKVFVDLSPFGVGVIRGVNYLEAKNELKDIEEGDNIKVRVLEIDNENGFIELAL  0.271
75. HMGFSKGKRDLIRMIKLAIRELADDNGRAQIEDVITRLVQEGHSRDEIRLQIDMFLRQGEAMEPKQGIIKL  0.325
